In the experiment the target is recombinant murine RIIα (murine, UniProt P12367). In words: in situ overlay of fixed, permeabilized PMA-treated HEL cells with recombinant murine RIIα, immunofluorescence.

Method: After 1 hr the coverslips were carefully washed in PBS and 0.2% BSA and incubated with either a mixture of FITC conjugated donkey anti-rabbit secondary antibody (1:100 dilution, Jackson ImmunoReasearch Laboratories Inc, West Grove, Pa.) and rhodamine conjugated phalloidin (1 unit/coverslip, Molecular Probes, Inc, Eugene, Oreg.) or secondary antibody alone. […] Prior to incubation with primary antibody, cells were incubated with 80 nM recombinant murine RII for 2 hr and unbound RII removed by washing three times in PBS and 0.2% BSA. […] Control coverslips were treated with the antibody to RII in the absence of exogenous murine RII. Cells were examined using a Leica confocal laser scanning system equipped with a Leitz Fluovert-FU inverted microscope and an argon/krypton laser.
Fixed and permeabilized cells pre-treated with PMA were overlayed with recombinant murine RIIα.

B1: gravin (full length, human; 250 kDa protein of cell lysates) (other)
chain: MGAGSSTEQRSPEQPPEGSSTPAEPEPSGGGPSAEAAPDTTADPAIAASDPATKLLQKNGQLSTINGVAEQDELSLQEGDLNGQKGALNGQGALNSQEEEEVIVTEVGQRDSEDVSERDSDKEMATKSAVVHDITDDGQEENRNIEQIPSSESNLEELTQPTESQANDIGFKKVFKFVGFKFTVKKDKTEKPDTVQLLTVKKDEGEGAAGAGDHQDPSLGAGEAASKESEPKQSTEKPEETLKREQSHAEISPPAESGQAVEECKEEGEEKQEKEPSKSAESPTSPVTSETGSTFKKFFTQGWAGWRKKTSFRKPKEDEVEASEKKKEQEPEKVDTEEDGKAEVASEKLTASEQAHPQEPAESAHEPRLSAEYEKVELPSEEQVSGSQGPSEEKPAPLATEVFDEKIEVHQEEVVAEVHVSTVEERTEEQKTEVEETAGSVPAEELVGMDAEPQEAEPAKELVKLKETCVSGEDPTQGADLSPDEKVLSKPPEGVVSEVEMLSSQERMKVQGSPLKKLFTSTGLKKLSGKKQKGKRGGGDEESGEHTQVPADSPDSQEEQKGESSASSPEEPEEITCLEKGLAEVQQDGEAEEGATSDGEKKREGVTPWASFKKMVTPKKRVRRPSESDKEDELDKVKSATLSSTESTASEMQEEMKGSVEEPKPEEPKRKVDTSVSWEALICVGSSKKRARRRSSSDEEGGPKAMGGDHQKADEAGKDKETGTDGILAGSQEHDPGQGSSSPEQAGSPTEGEGVSTWESFKRLVTPRKKSKSKLEEKSEDSIAGSGVEHSTPDTEPGKEESWVSIKKFIPGRRKKRPDGKQEQAPVEDAGPTGANEDDSDVPAVVPLSEYDAVEREKMEAQQAQKGAEQPEQKAATEVSKELSESQVHMMAAAVADGTRAATIIEERSPSWISASVTEPLEQVEAEAALLTEEVLEREVIAEEEPPTVTEPLPENREARGDTVVSEAELTPEAVTAAETAGPLGSEEGTEASAAEETTEMVSAVSQLTDSPDTTEEATPVQEVEGGVPDIEEQERRTQEVLQAVAEKVKEESQLPGTGGPEDVLQPVQRAEAERPEEQAEASGLKKETDVVLKVDAQEAKTEPFTQGKVVGQTTPESFEKAPQVTESIESSELVTTCQAETLAGVKSQEMVMEQAIPPDSVETPTDSETDGSTPVADFDAPGTTQKDEIVEIHEENEVHLVPVRGTEAEAVPAQKERPPAPSSFVFQEETKEQSKMEDTLEHTDKEVSVETVSILSKTEGTQEADQYADEKTKDVPFFEGLEGSIDTGITVSREKVTEVALKGEGTEEAECKKDDALELQSHAKSPPSPVEREMVVQVEREKTEAEPTHVNEEKLEHETAVTVSEEVSKQLLQTVNVPIIDGAKEVSSLEGSPPPCLGQEEAVCTKIQVQSSEASFTLTAAAEEEKVLGETANILETGETLEPAGAHLVLEEKSSEKNEDFAAHPGEDAVPTGPDCQAKSTPVIVSATTKKGLSSDLEGEKTTSLKWKSDEVDEQVACQEVKVSVAIEDLEPENGILELETKSSKLVQNIIQTAVDQFVRTEETATEMLTSELQTQAHVIKADSQDAGQETEKEGEEPQASAQDETPITSAKEESESTAVGQAHSDISKDMSEASEKTMTVEVEGSTVNDQQLEEVVLPSEEEGGGAGTKSVPEDDGHALLAERIEKSLVEPKEDEKGDDVDDPENQNSALADTDASGGLTKESPDTNGPKQKEKEDAQEVELQEGKVHSESDKAITPQAQEELQKQERESAKSELTES
On to B1, for which the binding result is recorded as “binds”.

Source of the values: US6090929, “Protein binding fragments of gravin” (Oregon Health Science University, dated 2000).
